For test [1], the target named is T1, human Galectin-3 (Gal3), full-length recombinant (human, UniProt P17931 2-250). In words: cell-based or functional assay.
The target of test [2] is T1, human Galectin-3 (Gal3), full-length …. In words: not stated. Exponent is printed without a minus sign; value taken as a negative power of ten because the column is a KD in M.
The target is the same in test [3]. The test can be described thus: blocking ELISA, Gal3 coated, biotin-Tau aggregates. In general terms: An ELISA detects its analyte on a solid surface through an enzyme-linked reagent.
Protocol: (§1) The plate was incubated for an hour at room temperature with gentle rocking. Thereafter, the plate was washed three times with PBST. […] The plate was incubated at room temperature for an hour with gentle rocking and then washed three times with PBST.
For test [4] the target is unchanged. The test can be described thus: blocking ELISA, Gal3 coated, biotin-α-synuclein aggregates.
Protocol: as §1
For test [5] the target is unchanged. In words: blocking ELISA, Gal3 coated, PDGFR beta-Fc, antibody 20 µg/ml.
Protocol: (§2) After incubating the plate at 4° C. overnight, the plate was washed three times with PBST. The plate was then blocked for an hour with 2% BSA in PBST at room temperature with gentle rocking. […] The respective plates were incubated for an hour at room temperature with gentle rocking. Thereafter, the plate was washed three times with PBST. Peroxidase AffiniPure F(ab′)₂ Fragment Goat Anti-Human IgG (H+L) polyclonal antibody was then added to the wells at 1:4000 dilution in 2% BSA in PBST. The plate was incubated at room temperature for an hour with gentle rocking and then washed three times with PBST. TMB substrate was then added to each well. The reaction was stopped with 1M HCl and read using a plate reader (Molecular Devices, SpectraMax M4) at absorbance of 450 nm.
Test [6] has the same target. The test can be described thus: blocking ELISA, Gal3 coated, VEGFR3-Fc, antibody 20 µg/ml.
Protocol: as §2
The target is the same in test [7]. In words: blocking ELISA, Gal3 coated, EGFR-Fc, antibody 20 µg/ml.
Protocol: as §2
The target is the same in test [8]. In words: blocking ELISA, Gal3 coated, PDGFR alpha-Fc, antibody 20 µg/ml.
Protocol: as §2
Test [9] has the same target. The test can be described thus: blocking ELISA, Gal3 coated, biotin-TLR4.
For test [10] the target is unchanged. In words: blocking ELISA, Gal3 coated, TREM2-His.
Protocol: The plate was incubated for an hour at room temperature with gentle rocking. Thereafter, the plate was washed three times with PBST. Anti-6× His tag antibody-HRP (Abcam, ab1269) was then added to the wells at 1:3000 dilution in 2% BSA in PBST. The plate was incubated at room temperature for an hour with gentle rocking and then washed three times with PBST.
Test [11] has the same target. In words: blocking ELISA, Gal3 coated, biotin-Abeta42 peptide.
The target is the same in test [12]. The test can be described thus: blocking ELISA, Gal3 coated, biotin-APP695.
The target is the same in test [13]. The test can be described thus: blocking ELISA, Gal3 coated, biotin-Abeta42 oligomer.
For test [14] the target is unchanged. In words: not stated (FIG. 50).
In a further test the target is mouse Gal3 (mouse, UniProt P16110 2-264, limits assumed). In words: not stated (FIG. 50).
In test [15] the target is T1, human Galectin-3 (Gal3), full-length …. The test can be described thus: blocking ELISA, Gal3 coated, biotin-TGFβR2.
Protocol: After incubating the plate at 4° C. overnight, the plate was washed three times with 300 μl PBST. The plate was then blocked for an hour with 200 μl of 2% BSA in PBST at room temperature with gentle rocking. […] The plate was incubated for an hour at room temperature with gentle rocking. Thereafter, the plate was washed three times with 300 μl PBST. Avidin HRP (1:2000) was diluted in 2% BSA in PBST and then 40 μl added to the wells. The plate was incubated at room temperature for an hour with gentle rocking and then washed three times with 300 μl PBST. TMB substrate (50 μl) was then added to each well. The reaction was stopped with 1N HCl (25 μl) and read using a plate reader at absorbance of 450 nm.

A word on the Kd: it is a measure of binding affinity in units of concentration. As usually defined, the IC50 is the concentration that inhibits the measured activity by half.

T1 sequence (P17931 2-250 limits assumed): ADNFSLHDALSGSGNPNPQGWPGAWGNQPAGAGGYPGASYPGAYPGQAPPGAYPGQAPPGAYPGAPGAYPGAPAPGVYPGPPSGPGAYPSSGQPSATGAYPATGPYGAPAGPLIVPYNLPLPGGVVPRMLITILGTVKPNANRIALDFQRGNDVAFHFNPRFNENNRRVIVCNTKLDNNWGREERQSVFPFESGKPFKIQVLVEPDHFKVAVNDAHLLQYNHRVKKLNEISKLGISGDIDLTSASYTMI
mouse Gal3, sequence (P16110 2-264 limits assumed): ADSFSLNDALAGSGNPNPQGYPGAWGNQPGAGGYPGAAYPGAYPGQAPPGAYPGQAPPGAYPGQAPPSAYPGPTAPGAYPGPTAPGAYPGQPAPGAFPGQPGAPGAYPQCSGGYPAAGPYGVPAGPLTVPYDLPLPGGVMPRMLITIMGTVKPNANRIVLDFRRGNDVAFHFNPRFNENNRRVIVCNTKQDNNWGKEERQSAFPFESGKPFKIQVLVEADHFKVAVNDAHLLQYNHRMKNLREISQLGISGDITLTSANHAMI

B1: 4A11.2B5 (antibody, human IgG4 S228P, kappa, V domains shown)
VH: QVQLQQSGPELVKPGASVKISCKASGYSFTNYYIHWVKQRPGQGLEWIGWIYPGSGNTNYNEKFKGKATLTADTSSSTTNMQLSSLTSEDSAVYYCSTAPGGFDVWGSGTTVTVSS
VL: DIVMTQAAFSNPVTLGTSASISCRSSKSLLHSDGITYLYWYLQRPGQSPQLLIYRMSNLASGVPDRFSGSGSGTDFTLRISRVEAEDVGVYYCAQMLEFPLTFGAGTKLELKR
On to B1, for which the “decrease in TGFβ induction of ColA1 mRNA in LX2 cells (qRT-PCR)” value (shortened to “decrease in TGFβ induction of ColA1 mRNA”) in [1] was 58%.

B2: F847C.10B9 (antibody, human IgG4 S228P, kappa)
heavy: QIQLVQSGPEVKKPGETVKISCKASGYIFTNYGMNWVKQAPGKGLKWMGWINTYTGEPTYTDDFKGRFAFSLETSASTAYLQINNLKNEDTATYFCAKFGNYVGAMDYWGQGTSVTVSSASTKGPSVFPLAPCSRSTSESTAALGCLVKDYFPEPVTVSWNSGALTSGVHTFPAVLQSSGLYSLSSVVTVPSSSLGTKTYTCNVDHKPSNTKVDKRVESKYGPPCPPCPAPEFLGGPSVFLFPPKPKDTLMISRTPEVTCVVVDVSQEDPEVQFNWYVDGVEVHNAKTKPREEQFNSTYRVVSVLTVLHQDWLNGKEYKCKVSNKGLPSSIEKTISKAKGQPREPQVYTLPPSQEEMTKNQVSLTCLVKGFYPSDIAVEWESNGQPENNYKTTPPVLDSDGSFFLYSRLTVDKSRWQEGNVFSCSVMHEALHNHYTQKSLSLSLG
light: DIRMTQSPSSLSASLGDTITITCHASQNINVWLSWYQQKPGNIPKLLIYKASNLHTGVPSRFSGSGSGTGFTLTISSLQPEDIATYYCQQGQSYPYTFGGGTKLELKRTVAAPSVFIFPPSDEQLKSGTASVVCLLNNFYPREAKVQWKVDNALQSGNSQESVTEQDSKDSTYSLSSTLTLSKADYEKHKVYACEVTHQGLSSPVTKSFNRGEC
notes: also called 847.10B9
Turning to B2, the Kd in test [2] turned out to be 13600 nM. Also, the “% blocking of Gal3-Tau aggregates binding” value in test [3] was above 90%. For the same molecule, the “% blocking of Gal3-α-synuclein aggregates binding” value in test [4] is above 90%.

B3: F847C.12F12 (antibody, V domains shown)
VH: QIQLVQSGPELKKPGETVKISCKASGYTFTNYGMNWVKQAPGKGLKWMGWINTYTGEPTYVDDFKGRFAFSLETSASTAYLRINNLKNEDTATYFCAKFGNYVGAMDYWGQGTSVTVSS
VL: DIQVIQSPSSLSASLGDTITITCHASQNINVWLSWYQQKPGNIPKLLIYKASNLHTGVPSRFSGSGSGTGFTLTISSLQPEDIATYYCQQGQSYPYTFGGGTKLELKR
notes: also called 84712F12
Consider B3, for which, in test [2], the Kd was 19.2 nM. Further, the “% blocking of Gal3-Tau aggregates binding” value in test [3] was above 90%. Besides, the “% blocking of Gal3-α-synuclein aggregates binding” value in test [4] was above 90%.

B4: 24D12.2H9 (antibody, human IgG4 S228P, kappa, V domains shown)
VH: QVQLKQSGPGLVQPSQSLSITCTVSGFSLTSYGVHWVRQAPGKGLEWLGVIWSGGSTDYNAAFMSRLSISKDNSKSQVFFKMNSLQADDTAIYYCAKSPDGYDVAWFGYWGQGTLVTVSA
VL: DIVMTQSHKFMSTSVGDRVSITCKASQDVRTAVAWYQQKPGQSPKLLIYWASTRHTGVPDRFTGSGSGTDFTLTLSNVQSEDLADYFCQQYSSYPWTFGGGTKLEIKR
For B4, the “% blocking of Gal3-PDGFR beta binding” value in [5] was below 30%. Further, the “% blocking of Gal3-VEGFR3 binding” value in test [6] is below 30%. Moreover, the “% blocking of Gal3-EGFR binding” value in test [7] was below 30%. Further, the “% blocking of Gal3-PDGFR alpha binding” value in [8] is below 30%.

B5: 19B5.2E6 (antibody, mouse IgG2a, V domains shown)
VH: QIQLVQSGPELKKPGETVKISCKASGYTFTTYAMSWVKQAPGKGLKWMGWINTYSGVPTYADDLKGRFAFSLETSASTAYLQINNLKNEDTATYFCARGPYAMDYWGQGTSVTVSS
VL: DIQMTQTTSSLSASLGDRVTISCSASQGINNYLNWYQQKPDGTVKLLIYYASSLHSGVPSRFSGSGSGTDYSLTISNLEPEDIATYYCQQYSQVPYTFGSGTKLEIKR
On to B5, for which, in [1], the “decrease in TGFβ induction of ColA1 mRNA” value came out at 85%. Further, the “% blocking of Gal3-TLR4 binding” value in [9] is above 90%. Moreover, the “% blocking of Gal3-TREM2 binding” value in [10] was above 90%. Further, in [11], the “% blocking of Gal3-Abeta42 peptide binding” value is above 90%. In addition, in [12], the “% blocking of Gal3-APP695 binding” value is above 90%. In addition, the “% blocking of Gal3-Abeta42 oligomer binding” value in test [13] is above 90%.

B6: F847C.11B1 (antibody, human IgG4 S228P, kappa, V domains shown)
VH: EVQLQQSGPELVKPGASVKISCKASGNTFTDHNMHWVKQSHGKSLEWIGYIYPYNGGTGYNQKFKSKATLTVDNSSSTVYMELRSLTSEDSAVYYCARGEYDYLAWFAYWGQGTLVTVSA
VL: EIVLTQSPASLSVTTGEKVTIRCITSIDIDDDMNWYQQKPGEPPKLLISEGNTLRPGVPSRFSSSGYGTDFVFTIENTLSEDVADYYCLQSDNKPLTFGAGTKLELKR
notes: also called 847.11B1
Regarding B6, the equilibrium dissociation constant (Kd) in [2] was determined as 4.29 nM. In test [3], the “% blocking of Gal3-Tau aggregates binding” value was below 50%. The “% blocking of Gal3-TREM2 binding” value in [10] was below 47%. Besides, in test [11], the “% blocking of Gal3-Abeta42 peptide binding” value was below 46%. The “% blocking of Gal3-α-synuclein aggregates binding” value in test [4] is below 50%. In addition, the “% blocking of Gal3-Abeta42 oligomer binding” value in [13] was below 26%.

B7: 15G7.2A7 (antibody, human IgG4 S228P, kappa, V domains shown)
VH: EVQLQQSGPELVKPGASVKISCKASGYTFTDYYMNWVKQSHGKSLEWIGDINPNNGGTNYNQKFKGKATLTVDKSSSTAYMELRSLTSEDSAVYYCTSGYGFPYWGQGTLVTVSA
VL: DIQMNQSPSSLSASLGDTISITCRASQNINIWLSWYQQKPGNIPQLLIYKASNLHTGVPSRFSGSGSGTDFTLTISSLQPEDIATYYCLQGQSYPLTFGAGTKLVMKR
notes: also called 15FG7.2A7
As for B7, the “% blocking of Gal3-TLR4 binding” value in test [9] was above 90%. In test [3], the “% blocking of Gal3-Tau aggregates binding” value is above 90%. In test [10], the “% blocking of Gal3-TREM2 binding” value was above 90%. Also, the “% blocking of Gal3-Abeta42 peptide binding” value in test [11] was above 90%. For the same molecule, the “% blocking of Gal3-α-synuclein aggregates binding” value in test [4] is above 90%. In addition, in test [12], the “% blocking of Gal3-APP695 binding” value was above 90%.

B8: 4G2.2G6 (antibody, human IgG4 S228P, kappa, V domains shown)
VH: QIQLVQSGPDLKKPGETVKISCKASGYTFTTYVMSWVKQAPGKDLKWMGWINTHSGVPTYADDFKGRFDFSLETSANTAFLQINNLKNEDTATYFCTRDGNDGDAMDNWGQGTSVTVSS
VL: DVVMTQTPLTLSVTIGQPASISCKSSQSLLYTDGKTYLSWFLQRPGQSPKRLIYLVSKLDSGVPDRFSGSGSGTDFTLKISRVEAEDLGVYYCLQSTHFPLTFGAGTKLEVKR
With B8, the “% blocking of Gal3-VEGFR3 binding” value in test [6] is below 30%.

B9: TB006 (antibody, V domains shown)
VH: QVQLVQSGAEVKKPGASVKVSCKASGYSFTNYYMHWVRQAPGQRLEWMGWIYPGSGNTNYNEKFQGRVTITADTSASTAYMELSSLRSEDTAVYYCSTAPGGFDVWGQGTTVTVSS
VL: DIVMTQTPLSLSVTPGQPASISCKSSKSLLHSDGITYLYWYLQKPGQSPQLLIYRMSNLASGVPDRFSGSGSGTDFTLKISRVEAEDVGVYYCAQMLEFPLTFGQGTKLEIKR
notes: Humanized variant derived from murine 4A11.2B5; also called 4A11.H3L1; IMT006
Consider B9, for which the “IC50 of TGF-β-induced pro-collagen production in LX-2 cells” value in test [1] stood at 0.23 µg/mL. Besides, the “% blocking of Gal3-TLR4 binding” value in test [9] is above 90%. The “% blocking of Gal3-Tau aggregates binding” value in test [3] was above 90%. Further, in test [10], the “% blocking of Gal3-TREM2 binding” value was above 90%. Besides, the Kd in test [14] amounted to 8.9 nM; with mouse Gal3, 40000 nM. The 50% inhibitory concentration (IC50) in test [15] came out at 11.5 nM; in test [13], 2.38 nM. The “% blocking of Gal3-Abeta42 peptide binding” value in test [11] is above 90%. For the same molecule, the “% blocking of Gal3-APP695 binding” value in [12] was above 90%. In addition, the “% blocking of Gal3-Abeta42 oligomer binding” value in test [13] is above 90%.

B10: 13G4.2F8 (antibody, human IgG4 S228P, kappa, V domains shown)
VH: QVQLQQPGAELVKPGASVKLSCKASGYTFTSYWMHWVKQRPGQGLEWIGMIHPNSGSTDYNEKFKNKATLNVDKSSSTAYIQLSSLTSEDSAVYYCTRWGIYYYARDYWGQGTTLTVSS
VL: DIVMTQSQKFMSTSVGERVSITCKASQNVGTNVAWYQQKAGQSLELLIYGASNRHTGVPDRFTGSGSGTDFTLTITNVQSEDMTNYFCEQYSNFPLTFGAGTKLELKR
Consider B10, for which the “% blocking of Gal3-PDGFR beta binding” value in test [5] was below 30%. Besides, in test [6], the “% blocking of Gal3-VEGFR3 binding” value was below 30%. Moreover, in test [3], the “% blocking of Gal3-Tau aggregates binding” value was below 50%. Further, in test [7], the “% blocking of Gal3-EGFR binding” value was below 30%. The “% blocking of Gal3-PDGFR alpha binding” value in test [8] is below 30%. Further, in test [4], the “% blocking of Gal3-α-synuclein aggregates binding” value was below 50%.

B11: mTB001 (antibody, mouse IgG2a, V domains shown)
VH: QIQLVQSGPELKKPGETVKISCKASGYTFTNYGMNWVKQAPGKGLKWMGWINTNTGEPTYVEEFKGRFAFSLETSASTAYLQINNLKNEDTATYFCAPYDNFFAYWGQGTLVTVSA
VL: DIVITQDELSNPVTSGESVSISCRSSKSLLYKDGKTYLNWFLQRPGQSPQLLIYLMSTHASGVSDRFSGSGSGTDFTLEISRVKAEDVGVYYCQQLVDYPLTFGAGTKLELKR
notes: also called mIMT001; murine IMT001
In the case of B11, the “% blocking of Gal3-PDGFR beta binding” value in test [5] is above 70%. Moreover, the “decrease in TGFβ induction of ColA1 mRNA” value in test [1] is 63%. For the same molecule, in test [7], the “% blocking of Gal3-EGFR binding” value was above 70%. Besides, the “% blocking of Gal3-PDGFR alpha binding” value in test [8] was above 70%.
